Source: paper PMC12012969

Legend:
[1] = target: KslB, bacterial Pictet–Spenglerase from Kitasatospora setae (Kitasatospora setae); experiment: crystal structure
[2] = target: KslB, bacterial Pictet–Spenglerase from Kitasatospora setae (Kitasatospora setae); experiment: SEC

“KslB, bacterial Pictet–Spenglerase from Kitasatospora setae (enzyme)” was tested, and the stoichiometry N [1] was 2 and the stoichiometry N [2] was 2.
